From patent publication US20030148973A1, “MAGE-A1 peptides for treating or preventing cancer” (priority 2001, published 2003)

Molecular target: T1, HLA-A0201 molecules on T2 cells (Homo sapiens, UniProt P04439, D140Y/D185E/D98H/E176V/E277Q/G131W/G231S/I119V/I121R/I166T/I218V/L300P/L318F/N151K/N90K/P208A/P217A/Q86G/Q94H/R138H/R169H/T345S)
T1 construct: endogenous in cells; host or cells: T2 cell line (from Dr. Peter Creswell, Yale University)
Test: Binding and stabilization of surface HLA-A0201 on T2 cells (BB7.2 antibody, flow cytometry)
Settings: 20 μg peptide pulsed onto 10^6 denatured T2 cells, 4 hours at 26° C.; BB7.2 binding detected with FITC conjugate
Description: The ability of the MAGE-A1 derived peptides to be presented in the context of HLA-A2 was determined by the ability of such peptides stabilize membrane-bound HLA-A0201 molecules The T2 cell line (Dr. Peter Creswell, Yale University) has been well documented to have a defective TAP (e.g. Transporter for Antigen Processing) transporter function. As a result, the majority of intracellularly generated peptides are not transported into the endoplasmic reticulum and thus are unable to associate with newly synthesized HLA class 1 MHC molecules (e.g. HLA-A0201; Salter, R D and Creswell, P. (1986) EMBO J 5:943). […] The stability of the surface HLA-A0201 molecules can be restored upon interaction with suitable exogenous peptides. […]
In order to determine whether the identified nonapeptides can be presented by HLA-A0201, T2 cells were propagated in RPMI complete medium (RPMI medium supplemented with 10% heat-inactivated bovine serum, 120.0 units per ml of penicillin G sodium, 120 μg per ml of streptomycin sulphate, and 0.35 mg per ml of L-glutamine). The ability of MAGE-A1 derived peptides to bind and stabilize surface HLA-A0201 molecules on T2 cells was determined utilizing a standard protocol (Deng, Y. (1997) J Immunol 158:1507-1515). […] The binding of BB7.2 was detected via the addition of 1.0 μg per test of goat anti-mouse IgG-Fc fluorescein (FITC) conjugate (BETHYL Laboratories Inc). […]

Fluorescence Index (FI): 1.73
Sequence: CLGLSYDGL (listed as Homo sapiens) [MAGE-A1 174]
